Among the data in publication PMC6994669 (Nature Communications, 2020) are binding result and Kd values, retold here.

In general, Kd refers to a measure of binding affinity in units of concentration.

Some results are limits rather than exact numbers.

The labels stand for the following.
B1: mouse Liprin-α3 tSAM (residues 808–1114) (domain or fragment)
chain: not shown
notes: mouse Liprin-α3, tandem SAM domain (αN, SAM1-SAM3), residues 808-1114; also called WT; source: E. coli Rosetta (DE3), purified (Glutathione Sepharose, Resource Q, GST cleaved off by HRV3c protease, Superdex 200); not shown: GST, N-terminal, cleaved

Assay [1] deals with T1, mouse CASK N-terminal kinase domain (residues 1–323) fused with the N-terminal His6-tag (mouse, UniProt O70589 1-323).
T1 construct: mouse CASK (calcium/calmodulin-dependent serine kinase), N-terminal kinase domain, residues 1-323; Cloned into pET21a, the same vector as the C-terminally tagged PTPδ D2-His6, yet the methods call this tag N-terminal; also called His6-CASK; N-terminal kinase domain of CASK; not shown: His6, N-terminal, kept
T1 sequence (looked up): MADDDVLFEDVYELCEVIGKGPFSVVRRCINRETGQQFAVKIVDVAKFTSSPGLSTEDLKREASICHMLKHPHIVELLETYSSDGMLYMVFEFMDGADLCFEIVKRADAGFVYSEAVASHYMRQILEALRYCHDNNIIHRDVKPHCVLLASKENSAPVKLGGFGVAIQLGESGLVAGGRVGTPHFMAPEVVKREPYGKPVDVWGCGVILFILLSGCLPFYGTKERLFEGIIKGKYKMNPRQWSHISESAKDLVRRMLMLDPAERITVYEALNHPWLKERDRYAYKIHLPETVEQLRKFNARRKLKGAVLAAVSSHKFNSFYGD
Kind of assay: pull-down; GST pull-down (Fig. 5c): Liprin-α3 tSAM and/or His6-CASK mixed with GST-PTPδ D2 at equimolar ratio (20 µM) in PBS with 0.1% Triton X-100, then immobilised on Glutathione Sepharose FF; eluted with glutathione; SDS-PAGE, Coomassie. The following applies: both partners purified.

Assay [2] deals with B1. The assay is described as follows: SPR; Biacore T200, 25 °C, 10 mM Hepes-NaOH pH 7.5, 150 mM NaCl, 0.005% Tween-20; wild-type or mutant PTPδ D2-His6 amine-coupled on a CM5 chip; wild-type or mutant Liprin-α3 tSAM injected, twofold dilutions from 40 µM to 39 nM; equilibrium KD. The following applies: both partners purified. In general terms: SPR reads the build-up and loss of mass on a sensor chip optically.

In the case of B1, the binding result in assay [1] was “binds”.

B2: PTPδ D2-His6 L1380A (domain or fragment)
chain: NTEVPARNLYAYIQKLTQIETGENVTGMELEFKRLASSKAHTSRFISANLPCNKFKNRLVNIMPYESTRVCLQPIRGVEGSDYINASFLDGYRQQKAYIATQGPLAETTEDFWRMLWEHNSTIVVMLTKLREMGREKCHQYWPAERSARYQYFVVDPMAEYNMPQYIAREFKVTDARDGQSRTVRQFQFTDWPEQGVPKSGEGFIDFIGQVHKTKEQFGQDGPISVHCSAGVGRTGVFITLSIVLERMRYEGVVDIFQTVKMLRTQRPAMVQTEDQYQFCYRAALEYLGSFDHYAT
In turn, B2 registered a Kd in assay [2] of over 40 µM.

B3: PTPδ D2-His6 F1399A (domain or fragment)
chain: NTEVPARNLYAYIQKLTQIETGENVTGMELEFKRLASSKAHTSRFISANLPCNKFKNRLVNIMPYESTRVCLQPIRGVEGSDYINASFLDGYRQQKAYIATQGPLAETTEDFWRMLWEHNSTIVVMLTKLREMGREKCHQYWPAERSARYQYFVVDPMAEYNMPQYILREFKVTDARDGQSRTVRQAQFTDWPEQGVPKSGEGFIDFIGQVHKTKEQFGQDGPISVHCSAGVGRTGVFITLSIVLERMRYEGVVDIFQTVKMLRTQRPAMVQTEDQYQFCYRAALEYLGSFDHYAT
In assay [2], B3 gave a Kd of 32 µM.

B4: PTPδ D2-His6 Y1506A (domain or fragment)
chain: NTEVPARNLYAYIQKLTQIETGENVTGMELEFKRLASSKAHTSRFISANLPCNKFKNRLVNIMPYESTRVCLQPIRGVEGSDYINASFLDGYRQQKAYIATQGPLAETTEDFWRMLWEHNSTIVVMLTKLREMGREKCHQYWPAERSARYQYFVVDPMAEYNMPQYILREFKVTDARDGQSRTVRQFQFTDWPEQGVPKSGEGFIDFIGQVHKTKEQFGQDGPISVHCSAGVGRTGVFITLSIVLERMRYEGVVDIFQTVKMLRTQRPAMVQTEDQYQFCYRAALEYLGSFDHAAT
In assay [2], B4 showed a Kd of 11.4 µM.

B5: PTPδ D2-His6 D1504A (domain or fragment)
chain: NTEVPARNLYAYIQKLTQIETGENVTGMELEFKRLASSKAHTSRFISANLPCNKFKNRLVNIMPYESTRVCLQPIRGVEGSDYINASFLDGYRQQKAYIATQGPLAETTEDFWRMLWEHNSTIVVMLTKLREMGREKCHQYWPAERSARYQYFVVDPMAEYNMPQYILREFKVTDARDGQSRTVRQFQFTDWPEQGVPKSGEGFIDFIGQVHKTKEQFGQDGPISVHCSAGVGRTGVFITLSIVLERMRYEGVVDIFQTVKMLRTQRPAMVQTEDQYQFCYRAALEYLGSFAHYAT
On to B5, for which binding in assay [2] was characterised by a dissociation constant (Kd) of 18 µM.
